Experimental findings from patent publication US20240392262A1, “TRANSPOSASE AND USES THEREOF” (Poseida Therapeutics, Inc., published 2024) are described below.

Conditions in all cases: tags: 3xFlag, SV40 NLS
Data set [1] has as its target T1, PAH4 Right TAL-PBx (synthetic construct).
T1 chain: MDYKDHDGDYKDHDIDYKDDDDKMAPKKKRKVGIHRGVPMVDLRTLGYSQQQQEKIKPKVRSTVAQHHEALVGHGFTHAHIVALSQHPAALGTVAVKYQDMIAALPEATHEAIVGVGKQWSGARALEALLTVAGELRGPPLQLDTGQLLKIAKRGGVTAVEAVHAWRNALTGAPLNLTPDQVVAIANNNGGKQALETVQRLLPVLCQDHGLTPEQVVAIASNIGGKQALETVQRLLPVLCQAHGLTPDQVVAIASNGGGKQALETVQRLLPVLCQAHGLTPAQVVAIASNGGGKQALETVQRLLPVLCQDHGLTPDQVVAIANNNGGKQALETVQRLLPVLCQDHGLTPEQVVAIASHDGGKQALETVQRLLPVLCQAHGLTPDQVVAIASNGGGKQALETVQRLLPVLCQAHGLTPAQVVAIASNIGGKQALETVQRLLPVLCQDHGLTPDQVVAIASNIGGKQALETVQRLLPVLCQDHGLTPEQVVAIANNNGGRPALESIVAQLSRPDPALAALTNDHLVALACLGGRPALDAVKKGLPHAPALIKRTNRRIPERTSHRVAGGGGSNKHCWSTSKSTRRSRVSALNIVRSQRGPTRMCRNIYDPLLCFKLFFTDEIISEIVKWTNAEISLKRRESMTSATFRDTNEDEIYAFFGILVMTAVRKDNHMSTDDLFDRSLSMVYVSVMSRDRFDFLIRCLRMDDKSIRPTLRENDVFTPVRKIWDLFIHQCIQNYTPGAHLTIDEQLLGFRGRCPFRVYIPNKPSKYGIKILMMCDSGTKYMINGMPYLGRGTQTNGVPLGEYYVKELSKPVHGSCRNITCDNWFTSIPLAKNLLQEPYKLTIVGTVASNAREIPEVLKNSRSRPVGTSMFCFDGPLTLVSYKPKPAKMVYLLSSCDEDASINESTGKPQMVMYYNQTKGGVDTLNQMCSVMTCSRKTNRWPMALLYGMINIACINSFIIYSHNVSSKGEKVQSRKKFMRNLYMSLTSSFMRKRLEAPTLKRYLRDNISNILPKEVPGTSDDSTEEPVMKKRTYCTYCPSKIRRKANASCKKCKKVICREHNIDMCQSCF
In words: cell_activity; right only.

For data set [2], the target named is T2, PAH4 Left TAL-PBx (synthetic construct).
T2 chain: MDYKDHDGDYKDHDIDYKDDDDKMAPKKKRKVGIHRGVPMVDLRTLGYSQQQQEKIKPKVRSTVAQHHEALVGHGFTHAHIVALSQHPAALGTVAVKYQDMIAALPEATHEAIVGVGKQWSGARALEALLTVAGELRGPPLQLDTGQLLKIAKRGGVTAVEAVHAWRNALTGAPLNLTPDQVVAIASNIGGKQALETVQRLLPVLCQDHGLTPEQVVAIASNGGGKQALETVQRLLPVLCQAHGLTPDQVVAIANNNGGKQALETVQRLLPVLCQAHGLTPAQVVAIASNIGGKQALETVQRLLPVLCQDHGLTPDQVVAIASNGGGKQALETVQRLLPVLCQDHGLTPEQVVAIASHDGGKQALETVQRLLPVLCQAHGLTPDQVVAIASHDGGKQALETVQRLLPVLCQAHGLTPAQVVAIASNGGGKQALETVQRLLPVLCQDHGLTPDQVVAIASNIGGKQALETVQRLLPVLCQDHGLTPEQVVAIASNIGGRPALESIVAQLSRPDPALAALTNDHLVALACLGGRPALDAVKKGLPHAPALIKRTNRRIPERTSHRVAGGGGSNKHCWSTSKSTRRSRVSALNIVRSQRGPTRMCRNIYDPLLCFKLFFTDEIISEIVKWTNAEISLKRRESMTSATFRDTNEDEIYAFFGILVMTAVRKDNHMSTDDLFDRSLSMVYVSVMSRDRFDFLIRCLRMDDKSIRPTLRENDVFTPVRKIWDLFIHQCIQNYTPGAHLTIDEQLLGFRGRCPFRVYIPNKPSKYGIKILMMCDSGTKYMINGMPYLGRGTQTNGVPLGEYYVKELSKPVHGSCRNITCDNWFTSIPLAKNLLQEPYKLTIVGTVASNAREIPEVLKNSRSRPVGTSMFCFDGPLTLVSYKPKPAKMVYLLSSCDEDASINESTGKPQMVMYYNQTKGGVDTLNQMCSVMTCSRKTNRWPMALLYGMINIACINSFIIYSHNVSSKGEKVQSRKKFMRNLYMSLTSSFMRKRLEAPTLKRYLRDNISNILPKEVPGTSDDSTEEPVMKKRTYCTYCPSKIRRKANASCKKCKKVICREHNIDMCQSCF
In words: cell_activity; left only.

Data set [3] addresses T3, PAH5 Right TAL-PBx (synthetic construct).
T3 chain: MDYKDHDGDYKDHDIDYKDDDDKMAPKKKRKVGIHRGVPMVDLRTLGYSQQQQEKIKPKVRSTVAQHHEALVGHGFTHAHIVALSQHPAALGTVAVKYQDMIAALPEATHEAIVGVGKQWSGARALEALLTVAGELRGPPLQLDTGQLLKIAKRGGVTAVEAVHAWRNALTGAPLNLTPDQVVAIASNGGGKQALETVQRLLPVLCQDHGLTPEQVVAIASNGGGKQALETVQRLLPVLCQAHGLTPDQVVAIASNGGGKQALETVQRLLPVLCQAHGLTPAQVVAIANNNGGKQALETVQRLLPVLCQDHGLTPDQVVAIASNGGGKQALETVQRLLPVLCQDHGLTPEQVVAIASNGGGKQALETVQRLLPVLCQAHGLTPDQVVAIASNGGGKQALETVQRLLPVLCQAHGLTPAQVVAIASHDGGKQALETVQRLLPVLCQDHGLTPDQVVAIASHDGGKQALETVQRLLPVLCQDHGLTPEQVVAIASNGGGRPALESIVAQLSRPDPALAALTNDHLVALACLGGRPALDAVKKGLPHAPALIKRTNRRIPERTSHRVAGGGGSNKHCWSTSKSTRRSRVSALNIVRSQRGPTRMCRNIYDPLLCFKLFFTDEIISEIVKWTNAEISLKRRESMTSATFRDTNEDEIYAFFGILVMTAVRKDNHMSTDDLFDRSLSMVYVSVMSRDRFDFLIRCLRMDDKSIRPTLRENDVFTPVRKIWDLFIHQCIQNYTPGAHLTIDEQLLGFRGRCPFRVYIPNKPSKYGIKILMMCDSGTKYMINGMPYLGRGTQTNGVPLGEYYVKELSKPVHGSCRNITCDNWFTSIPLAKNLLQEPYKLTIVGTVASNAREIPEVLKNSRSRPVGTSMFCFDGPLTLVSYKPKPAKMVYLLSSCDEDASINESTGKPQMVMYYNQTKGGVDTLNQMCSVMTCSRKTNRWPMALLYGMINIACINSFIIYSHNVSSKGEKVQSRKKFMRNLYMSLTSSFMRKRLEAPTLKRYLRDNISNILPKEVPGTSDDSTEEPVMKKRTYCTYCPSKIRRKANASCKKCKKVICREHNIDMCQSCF
In words: cell_activity; right only.

Data set [4] deals with T4, PAH5 Left TAL-PBx (synthetic construct).
T4 chain: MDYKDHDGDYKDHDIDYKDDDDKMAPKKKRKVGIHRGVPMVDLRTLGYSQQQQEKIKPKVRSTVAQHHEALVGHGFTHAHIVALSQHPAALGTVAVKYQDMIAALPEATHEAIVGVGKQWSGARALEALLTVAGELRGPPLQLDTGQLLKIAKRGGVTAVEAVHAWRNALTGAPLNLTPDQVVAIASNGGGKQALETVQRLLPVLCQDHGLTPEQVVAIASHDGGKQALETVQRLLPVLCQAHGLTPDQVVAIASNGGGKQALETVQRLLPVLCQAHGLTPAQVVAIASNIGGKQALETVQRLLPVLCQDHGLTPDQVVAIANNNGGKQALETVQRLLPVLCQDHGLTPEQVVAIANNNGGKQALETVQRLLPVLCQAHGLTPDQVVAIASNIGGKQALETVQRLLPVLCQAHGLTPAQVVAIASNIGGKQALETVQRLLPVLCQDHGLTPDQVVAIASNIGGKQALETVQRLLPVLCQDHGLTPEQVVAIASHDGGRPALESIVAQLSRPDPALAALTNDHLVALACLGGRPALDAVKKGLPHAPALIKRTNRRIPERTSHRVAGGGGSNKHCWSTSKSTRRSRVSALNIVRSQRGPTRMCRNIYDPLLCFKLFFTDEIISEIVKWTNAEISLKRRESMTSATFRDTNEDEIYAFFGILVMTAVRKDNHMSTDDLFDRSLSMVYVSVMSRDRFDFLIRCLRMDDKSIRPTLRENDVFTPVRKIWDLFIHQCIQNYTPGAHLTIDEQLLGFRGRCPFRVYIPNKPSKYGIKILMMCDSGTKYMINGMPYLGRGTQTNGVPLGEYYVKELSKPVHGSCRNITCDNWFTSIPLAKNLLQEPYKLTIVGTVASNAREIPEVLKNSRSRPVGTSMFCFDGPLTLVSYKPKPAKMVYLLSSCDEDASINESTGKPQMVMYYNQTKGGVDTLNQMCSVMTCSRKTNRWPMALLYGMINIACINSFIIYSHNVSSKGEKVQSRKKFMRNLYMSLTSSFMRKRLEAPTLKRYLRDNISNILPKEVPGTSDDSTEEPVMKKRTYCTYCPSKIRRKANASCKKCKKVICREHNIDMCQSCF
In words: cell_activity; left only.

B1: PAH4 target (dsDNA)
DNA 1: TATGATCCTAATCAGGCTTGTAAATTAACTTTTGAGGCTCTCTTAGCAATCA
DNA 2: TGATTGCTAAGAGAGCCTCAAAAGTTAATTTACAAGCCTGATTAGGATCATA
For the molecule B1, the activity was found to be 2.9 % GFP+ in data set [1] and 3.6 % GFP+ in data set [2].

B2: PAH5 target (dsDNA)
DNA 1: TTCTAGGAAACTTGAACTATGATTTTAAAAAAAGAGAAAGAAGGAAACAAAA
DNA 2: TTTTGTTTCCTTCTTTCTCTTTTTTTAAAATCATAGTTCAAGTTTCCTAGAA
Regarding B2, the activity came out at 3.9 % GFP+ in data set [3] and 3.6 % GFP+ in data set [4].
